Data as given in patent US20250135046A1, “CHOLECYSTOKININ B RECEPTOR-TARGETED COMPLEX AND A CONTRAST AGENT THEREOF” (National Atomic Research Institute, priority 2023, published 2025).
Square brackets hold non-standard residues; d marks the D form. Peptide text beside a SMILES is read from it. * marks the point of attachment. DOTA = O=C(O)CN1CCN(CC(=O)O)CCN(CC(=O)*)CCN(CC(=O)O)CC1; Butanoyl(4-(4-MePh)) = Cc1ccc(CCCC(=O)*)cc1; 4Amb = NCc1ccc(C(=O)O)cc1; Nle = CCCC[C@H](N)C(=O)O; Ahx = NCCCCCC(=O)O

System: tumor site where the cholecystokinin B receptor is overexpressed
Set-up: species or system nude mice
Details: mouse, in vivo
Procedure: Establishment of tumor animal model: Five-to six-week-old male experimental nude mice are purchased from the National Laboratory Animal Center (NLAC, TAIWAN) and bred in the animal facility. All animal experiment procedures are performed in accordance with the protocols approved by Institutional Animal Care and Use Committee (IACUC, TAIWAN). The experimental mice are kept at a temperature of 21-23° C., and a 12-hour light-dark cycle are used as the basis for the animal's physiological cycle. A431-CCK2R^(−) and A431-CCK2R^(+) cells (2×10^6 cells) are inoculated in the left and right hind limbs of the mice. After the tumors growing to 200-300 mm^3, the radioactive labeled complexes Lu-177-D1, Lu-177-D2, and Lu-177-D3 are used as radiotherapy drugs and start the treatments. The cholecystokinin B receptor-targeted radiotherapy drugs […], Lu-177-D2, and Lu-177-D3 are administrated to the mice respectively by tail vein injection. After different time periods of administration, such as 4, 24, and 48 hours, the coronal sections of three tumor mice are obtained (Refer to FIG. 3). By showing the comparison of NanoSPECT and CT fusion images at different time points, the accumulation of these radiotherapy drugs in the tumor tissue can be observed. Then measure and record the tumor size twice a week. […]

SMILES	duration of drug accumulation in the tumor site
CCCC[C@H](NC(=O)[C@H](Cc1c[nH]c2ccccc12)NC(=O)CNC(=O)[C@H](Cc1ccc(O)cc1)NC(=O)[C@H](C)NC(=O)[C@H](CCC(=O)O)NC(=O)[C@H](CCC(=O)O)NC(=O)[C@H](CCC(=O)O)NC(=O)[C@H](CCC(=O)O)NC(=O)[C@H](CCC(=O)O)NC(=O)[C@H](CCC(=O)O)NC(=O)c1ccc(CNC(=O)[C@H](CCCCNC(=O)CCCc2ccc(C)cc2)NC(=O)CN2CCN(CC(=O)O)CCN(CC(=O)O)CCN(CC(=O)O)CC2)cc1)C(=O)N[C@@H](CC(=O)O)C(=O)N[C@@H](Cc1ccccc1)C(N)=O [Lu-177-D3, metal not drawn] ({DOTA}-K(Butanoyl(4-(4-MePh)))[4Amb]EEEEEEAYGW[Nle]DF-NH2)	at least 48 hours
CCCC[C@H](NC(=O)[C@H](Cc1c[nH]c2ccccc12)NC(=O)CNC(=O)[C@H](Cc1ccc(O)cc1)NC(=O)[C@H](C)NC(=O)[C@H](CCC(=O)O)NC(=O)[C@H](CCC(=O)O)NC(=O)[C@H](CCC(=O)O)NC(=O)[C@H](CCC(=O)O)NC(=O)[C@H](CCC(=O)O)NC(=O)[C@H](CCC(=O)O)NC(=O)CCCCCNC(=O)[C@H](CCCCNC(=O)CCCc1ccc(C)cc1)NC(=O)CN1CCN(CC(=O)O)CCN(CC(=O)O)CCN(CC(=O)O)CC1)C(=O)N[C@@H](CC(=O)O)C(=O)N[C@@H](Cc1ccccc1)C(N)=O [Lu-177-D1, metal not drawn] ({DOTA}-K(Butanoyl(4-(4-MePh)))[Ahx]EEEEEEAYGW[Nle]DF-NH2)	at least 48 hours
